Laboratory results reported in the supplement of paper PMC11502859.

Test system: HEK293T
Test: median enrichment of reporter reads in eGFP-reduced (low/intermediate) vs eGFP-high sorted cells (eGFP-extension fusion abundance) (ratio); higher = stronger loss of eGFP-fusion protein abundance (more destabilising extension)
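Note: lentiviral eGFP-IRES-mCherry reporter pool sorted by FACS 96 h post-transduction, gated on mCherry-high cells, Illumina read counts normalized per million, median across four biological replicates.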

Substance | median enrichment
LKINC [FGG] | 0.827
CLGKAGHKNLHEQYFFLNRMFYYSSQVLECLHTII [FAM24A] | 4.34
QEDFKVNFPSLFLN [CSN2] | 0.654
YIAD [FUCA2] | 0.607
YEHLDQVEKGTLSLVCGKQHLQEI [XKR6] | 0.3
LPAIDNVAGTSASPLQPSNFPGTLLSAPEEGAVVSCCLWAPASSAVLGSVLLASVNNKATVCSGICGFVHSVTCHLHRALMAG [MCM5] | 5.35
LGRIMASFQNSFS [OR2AG1] | 7.84
YHPSG [FAM183A] | 0.527
SPAPHHPQEHSTHHRQPLETSYMSLGAEREVPSPCRTRSCMCLTQVWTGGHLGAGQGHPSLHIT [RABEPK] | 7.59
HHHHHH [His06] | 0.337
RGQAAPVLGEGG [DEPDC5] | 3.76
QSWWPQPLASDTLYLKNNCAL [CALB1] | 5.97
RCTKDLLF [GNA13] | 1.38
YSV [ILF3] | 0.744
SMKCLS [FANCI] | 0.846
LPGAGGWTC [PTH1R] | 1.02
WSSSSNSICKEHFSLKTCIWIIIITTF [CCDC148] | 3.42
SCSNGKMALFKPGPPIGQTQQQTRGQGSPVALSIEDRFLGSRRGWRKLKAGE [BTN3A2] | 5.24
YPCTISPSSFLGQPGPALVCGDWRDQERVWRPPEGCCLPGLQ [MLST8] | 5.76
YPNIIQGTEIKELRFKHKCLAQTYL [EEF1E1] | 7.38
QQLRLHQRQHTKKL [BCAS3] | 1.16
LSQTSFYIREPFQYSESETPA [ZNF12] | 3.12
AAAAAA [Ala06] | 8.25
WTGFAYLVLTLHHHHLMPTCPHPAELLSGHSLLLPFLLPLALPGPACTPVGWKCTAGSGSGSAPLWDPTFFSSLLLK [PTPN23] | 7.32

Substance | median enrichment
QVFGKQQRASPLPGGLPCRFWASFPCLSLFRCAFHL [MAP2K1] | 13.2
YKSDCSVRIYIYRFQSNKWGNR [CCNG2] | 4.91
YYYYYYYYY [Tyr09] | 4.03
SFFSLSRFLAALVLL [LONRF2] | 8.16
QDFRSICKCLFFIIALYIVCYLTR [DDX5] | 10.2
LNFQQRPSKDILQDSVIVNIWKVLEIFIVCKYCKCIGIKLSPPLLYETAHWSL [PTHLH] | 0.919
YLTLHLSSGCQGRRRSQQAPLFCSLSPEAEHMFSEKLLLRTF [RAF1] | 6.79
WSAVA [EFCAB2] | 0.771
EEEEEEE [Glu07] | 1.23
CTRAGGGAERGAPPPLRSLALSRPSCSLSNF [POU3F2] | 4.86
WKMKIP [N4BP2L2] | 1.67
QGVSLSLSFCIICLAECVYRLPKFTKKL [VNN2] | 10.5
VVVVVV [Val06] | 5.06
SIFFYQEG [PTEN] | 2.76
LLASIS [TENT2] | 5.22
KPGNPYSFSNTGSFI [ADAM30] | 0.59
WNMKAEMQQTTSA [MNDA] | 0.66
AGRAPPCMMGKAILPLPPPCFCCLFGEGGGEVGAAAPHPSSLLICTHWPLQTRTSGASPSPPPPCLAAGVAMMGWSSLGQGVL [SCN1B] | 3.87
KFSLLHYVHKGDHYHWGRNSCLVQCGKFLYIR [PDZRN3] | 12.1
KNAPSDLASKKSCSVPCVLSFKGIFRINSDLEDSSVLQRLAFIFIVIMEMLSFILSYIRKKGVMQLISISLGNALVLFSSFLV [CREB5] | 15.5
RDI [ACSM2A] | 0.259
YCLRGRLAASPAPPDLAPRAAAGAAACPGPPLRPASSRRPGAQPCAAEDSRDWRRPRPATAGARGHLPGLLTLSPHWEWAPRG [TMUB1] | 5.27
RGAV [RELT] | 0.538
CGPGGSGRGWPHPHDHCPGGGGLLLLSF [BIK] | 10.6

Substance | median enrichment
LGLLALTLQPTLAVWPSPGSFPAPLPLFPVLLNSPSWRVQALGMGGTRPHSFHRALRPDTADQPHSAQEAASGVGAQRGTAAS [BAP1] | 8.12
LPAAPGTRGYTPVSLRE [KRTAP12-3] | 0.986
WIPQGTTEAKELEVFSRGTDGLRALMMLPEVCKSFMS [LOR] | 10.9
QTVKEGVFVWTR [DSC1] | 2.42
WELLFLGEGEEGKGPGSRGTRG [EPHB1] | 5.5
SRKFLRCCHLLEMRFVLCLNGLFFKKTKNQMKEHSWGFLFVCVCMCKLMSNCICRSVIVLYCVNYFHCGYFSR [U2SURP] | 5.89
TMEPPGGRQKKR [Degron FEM1C] | 0.496
SGLQGRQLSFV [SYT17] | 0.686
WRFLLKLTLFHLSF [VHL] | 9.11
SPSASSRKNKKSRTWQVFSICCKYVY [FBXL13] | 8.34
LPGLRRTLWTECLRTSYSLMLNPFHFLSFHSWVDSDHKDSWGFPGRTLHLMEHLNCRFCFPPLPHVIIKL [LCE2B] | 6.36
EVQPACSCIQKPATTQPISACAYPDKKTKIPLGKTQALTLLFKWPLQKV [TPD52L1] | 13
YAATDLGHLSQLAHPPPLPNFRYLSILLK [FBXL6] | 5.29
QVVHIYGIWYEILICVYNT [ZNF230] | 47.2
QHLVQQ [IFNA13] | 0.328
SDPTSPSAFHWLCHGLYKQIIFPLFKIKSPNENLGM [PRSS37] | 5.12
LLHMQKDSAIYLKID [APBB2] | 11.6
WFYILTS [CLHC1] | 5.45
CAS [FAM118B] | 0.212
YQVAELGPLGQGAQATSSFVVTKQGSPFPFLLPYFVQRTRVIYIYICICLYPSPHLSDSALGTQLWAARGAVPCGSSCVCVPS [SCAMP5] | 8.36
QEITRWHQPRALARYGEGTWGPHLPPGLFREDPTVTPPSAVGAWRWAAGLNPPWGAPFLLPICVYIHK [MEF2B] | 5.36
YKGRAQQCK [IRX2] | 0.955
CARAALEAPARGICPYPSWKDSWMW [HCRTR1] | 10.8
RELTCETSA [FOXP2] | 0.325

Substance | median enrichment
QKILPSLVVGTDRIHLTQTSSFTDFNYLFLKT [WSB1] | 2.9
KIFFSPIFLPASGDTAAVTREASLGGPDAQGESWSGESMSCDTTAGAICSPAFLSVGEGISEFILYPRLAFTKFKSLSMRPRP [PGPEP1] | 11.5
GHACLPNTIWSWTTFDTNQSYWTRPLEDLKYTSHAVVYLGCDSLSNAALGKDESDLQGEKCNHTWAPVNYGTEGPNCSPKGAA [APOBEC2] | 3.91
GGTPEKMPGLIVPPQDMDSMWGQEGYLLPGKAISSSPVWGGMRPAPLVNTPFPRSSLPVLGGS [CIC] | 6.48
FPPPPSSGSPRSNVPPATFPLWPPAELICLSHRSWCLPLHRSLNAATLAGSRWKLVEGPCQVTAMLSLSRHGPGSFRHIQILH [S100A7A] | 8.52
SPGEKL [ZNF322] | 0.169
RLEPV [TMEM87B] | 0.479
KQWQQLGLETSRWCWDHLSLLLLASHSL [PACRG] | 7.92
YWENPLLVHLKTPNSTIICQEIKRTTP [PCP4] | 13.6
YIRRHH [IFITM2] | 9.67
CGCQLGRKRETRP [CCND2] | 0.808
DPTPLWGSGTLHCTGSLHTGRGTCAPTSETCRSPQLTCPTGAQHCTQLVGRTRACLRELPAGVMQGGGEVQGRGAGLSCHQHF [MAP3K11] | 2.41
LLQGSKLQR [OR7A5] | 10.4
YMCPTDPGTFLPQCCACKYTVKLSLYHFDRGED [GLRA2] | 11.1
SAVKFF [INTS8] | 0.917
QHWGRLPHPASGKPVAGHRVVPPVPS [SCLY] | 11
LPSASGSVVGQALIPALWGGSLYSLFGGMVTEFIVEPFSVQMLWLQIRNPTSPG [GOLGA3] | 4.27
WPVRPLSSPS [TBL3] | 0.256
EFIFKRFSECAQNTWLK [TRMT10C] | 5.59
YPVGGWRVCHSNLIESRKTEGNAAAN [OR52E8] | 4
YDLEFC [PQLC2L] | 0.999
YALGKKDCNQRKSIGVEEIKLTLFWLFF [GLI3] | 23.4
RCLPRAVDARAPVHTHTSTLTSPQCCASSTRFYSSQNCILNAQETFKLFMKRCVYREEEGANAVRIMFRL [UBE2QL1] | 11.9
KKCEECGKSFS [ZNF676] | 0.361

Substance | median enrichment
WPLQQNSFVLCGAMPSLTPNRVSVILRTFYPQHL [CPNE3] | 16.4
LRRIQICVCVCVCVCVCVCVCVSLCLCIG [KIFC1] | 24.3
SQGGTTQAPWAPRERGGIRAGQPPGCRCQEQSQAQVAPAACPVPFPKAPLHIEGRKREFRQLHSPFTPNPVFYSPEKRRESHE [STARD8] | 1.09
LRLSISRDMVLTQQFPVMAKCSI [IL13RA2] | 41.5
IPVPEHQIPRQLMRLAQCVTEAPGSQQSRAYSAHQAEQATGRDDASGQGSAGDRDYRPAVSGPLQRLPTQGLVGVKHDDNTYT [CCDC137] | 0.864
LKPGC [KRTAP1-4] | 0.613
YGRDWHRLAFQHLLSPTLHSLLPCLSNKPNAACEAFFIFLFTLFLMLPTLPFRFFC [RSU1] | 10.2
WGWTPVPAGRSPDMWTCSFVPTVHAGLRLEPRGAGQFTGSCRTRCQPLRGGTADARGFAHPGPSVPRAK [ITPKA] | 6.95
RCPCHLPSVHPESSQ [PPFIBP2] | 0.445
LATWRNCLCTGCGPTLSS [MED12] | 15.1
SVRLDWGGWHCVGGQLSI [ACTL10] | 13.7
SMALVALEWDPALTSPRANLGGAEGALGHRKQGKKGRSCGEMTLIFDCYPNLDL [NDRG2] | 7.41
KTCIHFLQTI [BACH1] | 2.97
YKRIS [KCNN2] | 1.05
FFFFFFFF [Phe08] | 9.45
YGFVVQD [EPM2AIP1] | 0.381
LSPLFLPTLQGPHSPYPSVQCTREETLCL [IDH3B] | 7.06
WCLGSTCLLSPQGLSLASLQWGCCVSVHLRLLCLCLLHHAGVWEEWTDRG [TCL1A] | 4.56
LDLVQHGNDSYRLIQQLTLRQVVLFQRPLFLPKPCYELNQMCQVFSGVLSNILFSCMGTSPLQMTMLMDLFIYLFKSLFS [IFNA8] | 6.11
RGNMCNVLTKVTGTY [PLEKHS1] | 1.76
